Source: PMC5772350

What was measured:
[1] = target: B5-GS3K (anti-CEA sdAb with C-terminal positively charged tail); experiment: SPR
[2] = target: B5-Rhiz (anti-CEA sdAb fused C-terminally to rhizavidin); experiment: SPR

Activity (%) [1]: 14.3% | Activity (%) [2]: 5% | XA (RU), SPR response to 100 nM CEA [2]: 839 RU
Substance: Carcinoembryonic antigen (CEA) (from UniProt P06731 35-685) (natural protein)
